Laboratory results from patent publication US9029097.

Biological target: β2AR-Rluc (human; Renilla reniformis) (UniProt P07550)
Assay: BRET2, living HEK293T cells, Iso, untagged Gβ1γ2 co-expressed

agonist-promoted increase in BRET: 68%
Substance: Gαs-GFP10
